The experiment has as its target T1, TRAIL (Recombinant Human TRAIL, BioLegend) (human, UniProt P50591 39-281).
T1 construct: TRAIL (TNFSF10), human, recombinant soluble protein from BioLegend; The catalogue number is printed for the ELISA; SPR names BioLegend only; also called TNFSF10; soluble TRAIL; source: bought: BioLegend (cat.no 752902)
Briefly: SPR; Biacore T100; gpUL4-V5 amine-coupled to a CM5 chip (5000RU), control surface soluble UL141 subtracted; TRAIL or TNFα flowed over (100 nM; kinetics from 3.125, 6.25, 12.5, 25 and 50 nM TRAIL, 1:1 binding fit); 10 mM HEPES, 150 mM NaCl, 0.005% TWEEN-20, pH 7.4. The conditions noted are these: both partners purified. In general terms: In SPR one partner is held on a chip, and binding of the other changes the refractive index at the surface.

T1 sequence (P50591 39-281): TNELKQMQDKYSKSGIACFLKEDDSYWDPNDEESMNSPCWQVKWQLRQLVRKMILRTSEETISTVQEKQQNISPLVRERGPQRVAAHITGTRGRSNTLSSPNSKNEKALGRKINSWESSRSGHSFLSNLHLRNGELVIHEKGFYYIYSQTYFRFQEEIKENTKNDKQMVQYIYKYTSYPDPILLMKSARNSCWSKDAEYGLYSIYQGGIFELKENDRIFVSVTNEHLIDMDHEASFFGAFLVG

B1: gpUL4-V5 (HCMV strain Merlin UL4 gene product with C-terminal V5/avitag/6his epitope tag) (natural protein)
chain: FCIFVSCSISTTTAPVEWKSPDRQIPMNITCANYSGTVNGNVTFRGLQNKTEDFLHWLLGWGHKSICSFFPKLQGNKEQHYMYGITNLTYNCTYDRLTLLNLTTENSGKYYFKREDVNSTFYYSCYNLTVT
modifications: N-linked and O-linked glycosylation on the secreted form (eight consensus N-linked sites; positions not given)
notes: the secreted form from the supernatant was used; Secreted glycoprotein; The tag is V5/avitag/6his in this order at the C-terminus; also called UL4 protein; not shown: V5, C-terminal, kept
B1: the Kd was 0.234 nM, the off-rate (koff) is 0.0002 s⁻¹ and the kon stood at 867000 M⁻¹ s⁻¹.

What is called Kd is a measure of binding affinity in units of concentration. Broadly, the koff is the first-order rate constant of dissociation. What is called kon is the second-order rate constant of association.

These data come from article PMC10710050, “HCMV-secreted glycoprotein gpUL4 inhibits TRAIL-mediated apoptosis and NK cell activation” (Proceedings of the National Academy of Sciences of the …, 2023).
